These results are taken from the supplement of paper PMC9112550, “Optimization of the antimicrobial peptide Bac7 by deep mutational scanning” (BMC Biology, 2022).

This data set concerns Escherichia coli TOP10. In words: shrunken log2 fold change of peptide-encoding DNA abundance (4.5 h post-induction vs induction); higher = less antimicrobial activity (less host growth inhibition). Conditions: time post-induction: 4.5 h; library: site-saturation at positions 5, 18, 19, 20.
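Further: peptides expressed intracellularly from a pBAD plasmid library in pooled LB shake-flask culture, induced with 0.3% L-arabinose, DNA abundance read by NGS, three biological replicates, DESeq2 with apeglm shrinkage.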

Consider RRIRGRPPRLPRPRPRPKWNPRP, for which the “shrunken log2 fold change” value stood at 0.581.
Then RRIRWRPPRLPRPRPRPREGPRP, with 1.28; and RRIRDRPPRLPRPRPRPMVWPRP, with 0.851; and RRIRRRPPRLPRPRPRPKEAPRP, with 0.0205.
To RRIRFRPPRLPRPRPRPHINPRP belongs -0.634; to RRIRYRPPRLPRPRPRPVSHPRP, -0.00492; to RRIRERPPRLPRPRPRPQMAPRP, 0.00684.
To RRIRFRPPRLPRPRPRPQKGPRP belongs 0.107.
Take RRIRLRPPRLPRPRPRPSFVPRP: the “shrunken log2 fold change” value was -0.392.
On to RRIRQRPPRLPRPRPRPHLIPRP, for which the “shrunken log2 fold change” value is -0.0982.
Then RRIRTRPPRLPRPRPRPHYTPRP, with -1.01.
With RRIRGRPPRLPRPRPRPKTKPRP, the “shrunken log2 fold change” value is 0.0509.
To RRIRNRPPRLPRPRPRPNGRPRP belongs -0.00776.
To RRIRARPPRLPRPRPRPYPPPRP belongs -0.129.
As for RRIRERPPRLPRPRPRPDTCPRP, the “shrunken log2 fold change” value is -0.0337.
Then RRIRDRPPRLPRPRPRPRITPRP, with -0.138; and RRIRCRPPRLPRPRPRPEPCPRP, with -0.0257; and RRIRSRPPRLPRPRPRPCYFPRP, with -0.387.
In the case of RRIRRRPPRLPRPRPRPDVFPRP, the “shrunken log2 fold change” value amounted to 0.06.
Then RRIRERPPRLPRPRPRPMYVPRP, with -0.0843; and RRIRGRPPRLPRPRPRPLNKPRP, with 0.11; and RRIRQRPPRLPRPRPRPRKVPRP, with -0.00271.
Then RRIRKRPPRLPRPRPRPYRVPRP, with -0.0373; and RRIRARPPRLPRPRPRPYSSPRP, with -0.28.
Take RRIRCRPPRLPRPRPRPYEQPRP: the “shrunken log2 fold change” value is -0.435.
Take RRIRHRPPRLPRPRPRPFCRPRP: the “shrunken log2 fold change” value was -0.108.
On to RRIRWRPPRLPRPRPRPWHPPRP, for which the “shrunken log2 fold change” value is 0.0551.
Consider RRIRIRPPRLPRPRPRPSNQPRP, for which the “shrunken log2 fold change” value is -1.08.
To RRIRRRPPRLPRPRPRPKILPRP belongs -0.199; to RRIRMRPPRLPRPRPRPQMIPRP, -0.0999; to RRIRPRPPRLPRPRPRPTDAPRP, 0.12.
For the sequence RRIRKRPPRLPRPRPRPDIEPRP, the “shrunken log2 fold change” value came to 2.53.
Then RRIRARPPRLPRPRPRPDVTPRP, with 0.533.
Consider RRIRRRPPRLPRPRPRPAPMPRP, for which the “shrunken log2 fold change” value is 0.957.
Consider RRIRERPPRLPRPRPRPPELPRP, for which the “shrunken log2 fold change” value was 0.102.
Consider RRIRLRPPRLPRPRPRPPQMPRP, for which the “shrunken log2 fold change” value amounted to 0.304.
To RRIRTRPPRLPRPRPRPGFCPRP belongs 0.106; to RRIRCRPPRLPRPRPRPSYRPRP, -0.242; to RRIRQRPPRLPRPRPRPDIHPRP, -0.0439.
Then RRIRCRPPRLPRPRPRPYFHPRP, with -0.233.
To RRIRTRPPRLPRPRPRPECIPRP belongs 0.0878; to RRIRLRPPRLPRPRPRPWAGPRP, -0.0317.
For RRIRVRPPRLPRPRPRPGQWPRP, the “shrunken log2 fold change” value was 0.0407.
Regarding RRIRNRPPRLPRPRPRPTTPPRP, the “shrunken log2 fold change” value came out at 0.152.
Take RRIRPRPPRLPRPRPRPDAVPRP: the “shrunken log2 fold change” value worked out at 0.325.
To RRIRWRPPRLPRPRPRPCFCPRP belongs 0.126; to RRIRPRPPRLPRPRPRPQGYPRP, -0.0854; to RRIRVRPPRLPRPRPRPQYTPRP, -0.526.
Then RRIRPRPPRLPRPRPRPRKEPRP, with -0.157; and RRIRIRPPRLPRPRPRPHQCPRP, with -0.331.
To RRIRQRPPRLPRPRPRPHPMPRP belongs -0.185; to RRIRIRPPRLPRPRPRPQCIPRP, -0.37; to RRIRHRPPRLPRPRPRPTKFPRP, -0.138.
As to RRIRTRPPRLPRPRPRPWPAPRP, the “shrunken log2 fold change” value is 0.61.
In the case of RRIRGRPPRLPRPRPRPWLFPRP, the “shrunken log2 fold change” value was 0.458.
Take RRIRRRPPRLPRPRPRPWYTPRP: the “shrunken log2 fold change” value was -0.637.
To RRIRERPPRLPRPRPRPVIIPRP belongs -0.634; to RRIRGRPPRLPRPRPRPPEFPRP, 1.01.
Then RRIRERPPRLPRPRPRPCGGPRP, with -0.0228.
Then RRIRGRPPRLPRPRPRPPNTPRP, with 0.516; and RRIRCRPPRLPRPRPRPWTGPRP, with -0.422.
For RRIRTRPPRLPRPRPRPHELPRP, the “shrunken log2 fold change” value is -0.125.
Turning to RRIRPRPPRLPRPRPRPTCRPRP, the “shrunken log2 fold change” value worked out at 0.418.
To RRIRLRPPRLPRPRPRPIAKPRP belongs -0.305.
Then RRIRSRPPRLPRPRPRPFMSPRP, with 0.00606.
To RRIRQRPPRLPRPRPRPADMPRP belongs -0.0927; to RRIRWRPPRLPRPRPRPSISPRP, -0.283; to RRIRGRPPRLPRPRPRPEARPRP, 1.54.
With RRIRARPPRLPRPRPRPDGVPRP, the “shrunken log2 fold change” value came out at 0.971.
To RRIRKRPPRLPRPRPRPILDPRP belongs 0.15; to RRIRTRPPRLPRPRPRPNPYPRP, -0.121; to RRIRDRPPRLPRPRPRPWLGPRP, 0.109.
To RRIRTRPPRLPRPRPRPHQGPRP belongs -0.0325; to RRIRLRPPRLPRPRPRPDFTPRP, 0.102; to RRIRWRPPRLPRPRPRPKAQPRP, 0.0185.
Turning to RRIRGRPPRLPRPRPRPGRKPRP, the “shrunken log2 fold change” value was 0.747.
With RRIRIRPPRLPRPRPRPYVQPRP, the “shrunken log2 fold change” value is -0.311.
Then RRIRRRPPRLPRPRPRPKTMPRP, with 0.348.
For RRIRERPPRLPRPRPRPCGVPRP, the “shrunken log2 fold change” value was 0.0484.
To RRIRERPPRLPRPRPRPALTPRP belongs 0.131; to RRIRTRPPRLPRPRPRPLCNPRP, -0.484; to RRIRYRPPRLPRPRPRPFNGPRP, -0.0276.
Then RRIRFRPPRLPRPRPRPCQIPRP, with -0.0143; and RRIRYRPPRLPRPRPRPRMCPRP, with -0.0134.
Then RRIRLRPPRLPRPRPRPKRAPRP, with 0.203.
For the sequence RRIRKRPPRLPRPRPRPHTWPRP, the “shrunken log2 fold change” value was 0.0484.
As for RRIRERPPRLPRPRPRPNMCPRP, the “shrunken log2 fold change” value is -0.369.
To RRIRNRPPRLPRPRPRPDGYPRP belongs 0.171; to RRIRGRPPRLPRPRPRPHEIPRP, 0.0317.
To RRIRLRPPRLPRPRPRPEPIPRP belongs 0.0321; to RRIRYRPPRLPRPRPRPGVSPRP, 0.0695; to RRIRKRPPRLPRPRPRPEQSPRP, 0.94.
Then RRIRWRPPRLPRPRPRPSKVPRP, with -0.04; and RRIRVRPPRLPRPRPRPSCIPRP, with -0.423.
Turning to RRIRWRPPRLPRPRPRPIVYPRP, the “shrunken log2 fold change” value was -0.0137.
Then RRIRRRPPRLPRPRPRPNPRPRP, with 1.11; and RRIRLRPPRLPRPRPRPEEFPRP, with -0.0121; and RRIRWRPPRLPRPRPRPLMWPRP, with 0.173.
As for RRIRVRPPRLPRPRPRPPCVPRP, the “shrunken log2 fold change” value was -0.112.
To RRIRQRPPRLPRPRPRPFYHPRP belongs -0.368; to RRIRDRPPRLPRPRPRPIYRPRP, -0.175; to RRIRRRPPRLPRPRPRPGVWPRP, 0.47.
Then RRIRTRPPRLPRPRPRPHCLPRP, with -0.305.
RRIRKRPPRLPRPRPRPWSTPRP: the “shrunken log2 fold change” value worked out at 0.0277.
Consider RRIRFRPPRLPRPRPRPWHPPRP, for which the “shrunken log2 fold change” value is -0.409.
Consider RRIRIRPPRLPRPRPRPWHVPRP, for which the “shrunken log2 fold change” value is -0.0239.
Regarding RRIRCRPPRLPRPRPRPQDNPRP, the “shrunken log2 fold change” value is -0.285.
As for RRIRVRPPRLPRPRPRPPLTPRP, the “shrunken log2 fold change” value is 0.119.
As for RRIRCRPPRLPRPRPRPKHLPRP, the “shrunken log2 fold change” value was -0.122.
Then RRIRGRPPRLPRPRPRPMKSPRP, with 0.206.
Then RRIRVRPPRLPRPRPRPCGIPRP, with 0.0878.
To RRIRNRPPRLPRPRPRPMFHPRP belongs -0.678.
RRIRHRPPRLPRPRPRPNCYPRP: the “shrunken log2 fold change” value is -0.0056.
With RRIRERPPRLPRPRPRPVRGPRP, the “shrunken log2 fold change” value stood at 0.543.
Turning to RRIRCRPPRLPRPRPRPQAHPRP, the “shrunken log2 fold change” value was -0.132.
Then RRIRFRPPRLPRPRPRPPWSPRP, with 0.204.
Turning to RRIRPRPPRLPRPRPRPYPAPRP, the “shrunken log2 fold change” value was -0.582.
For RRIRCRPPRLPRPRPRPRAWPRP, the “shrunken log2 fold change” value stood at 0.24.
Turning to RRIRWRPPRLPRPRPRPILMPRP, the “shrunken log2 fold change” value was -0.286.
Take RRIRGRPPRLPRPRPRPHYSPRP: the “shrunken log2 fold change” value was -0.661.
Then RRIRMRPPRLPRPRPRPAEPPRP, with 0.449.
In the case of RRIRDRPPRLPRPRPRPPRQPRP, the “shrunken log2 fold change” value was 0.782.
Consider RRIRARPPRLPRPRPRPDKLPRP, for which the “shrunken log2 fold change” value worked out at 0.105.
For the sequence RRIRQRPPRLPRPRPRPMFKPRP, the “shrunken log2 fold change” value is -0.572.
In the case of RRIRSRPPRLPRPRPRPQPYPRP, the “shrunken log2 fold change” value is -0.159.
